Assay results published in patent US7507716B2, “Method for treating pain with prolactin antagonists” (Board of Regents, The University of Texas System, priority 2005, dated 2009).

B1: PRL: Ovine PRL [oPRL-21, BIO] provided by NHPP; prolactin polypeptide hormone (protein, UniProt P01240 31-229, looked up)
Prolactin: TPVCPNGPGNCQVSLRDLFDRAVMVSHYIHNLSSEMFNEFDKRYAQGKGFITMALNSCHTSSLPTPEDKEQAQQTHHEVLMSLILGLLRSWNDPLYHLVTEVRGMKGVPDAILSRAIEIEEENKRLLEGMEMIFGQVIPGAKETEPYPVWSGLPSLQTKDEDARHSAFYNLLHCLRRDSSKIDTYLKLLNCRIIYNNNC

Key:
[1] = test system: capsaicin-evoked nocifensive behavior; assay: Eye-wipe test (corneal capsaicin); assay type: in vivo, rat
Procedure: To whether this effect has relevance to capsaicin-induced nociception in the whole animal, corneal wipe tests were performed. In this test, corneal application of capsaicin induces a brief nocifensive behavior in the trigeminal region of awake animals (Price et al., 2004; Neubert et al., 2005; Tender et al., 2005). The cornea is a specialized tissue innervated by trigeminal sensory neurons including TRPV1 positive C-fibers (Guo et al., 1999). Turning to FIG. 8A, the results of immunohistochemical analysis of corneal cryosections from proestrous females reveal the presence of fibers that stain positive for both PRL-R (green) and TRPV1 (red) (FIG. 8A).
In this test, the effect of PRL pretreatment on capsaicin-induced eye wiping in proestrous rats was examined. PRL (1 μg/ul in saline) or vehicle (40 μl) was applied in the cornea immediately followed by application of 0.01% capsaicin or vehicle (40 μl) and the total time spent grooming the injected eye per 5 min bins was measured by observers blinded to treatment allocation. Data are shown as mean±SEM (n=6/group *=p<0.05 and ***=p<0.001; two-way ANOVA). […] Data are shown as mean±SEM (n=6/group; two-way ANOVA). […] Data are shown as mean±SEM (n=6/group, **=p<0.01; two-way ANOVA). The effect of PRL on capsaicin-mediated nocifensive response was assessed next in male rats, in order to determine whether the influence of PRL-signaling on nociception is conserved between gender. Corneal wipe tests were performed on age-matched male rats essentially as described above. Data in FIG. 8E are shown as mean±SEM (n=6/group, **=p<0.01; two-way ANOVA). Unexpectedly, the capsaicin-mediated nocifensive response profile of male rats is strikingly similar to that of proestrus rats (compare FIG. 8E with FIG. 8B) and estradiol-treated OVX rats (compare FIG. 8E with FIG. 8D), and divergent from that found in control OVX rats treated with vehicle.
Eye-Wipe Test OVX female rats, treated with either vehicle or E2 (5μg/day/10 days), or intact female rats in the proestrous reproductive stage were brought to a quiet, temperature controlled (22-25° C.) behavioral laboratory in individual cages where they were allowed to acclimate for at least 2 h. PRL (1 μg/μl) or vehicle was placed directly onto the right eye in a volume of 40 ul followed by application of 0.01% (40 μl) capsaicin solution as described previously (Price et al. 2004). The resulting behavioral response was measured as time spent grooming or wiping the test eye. The observers were blinded to the treatments and the data were collected in 3 bins of 5 min.

[2] = test system: acutely dissociated TG neurons; assay: Calcium imaging, PRL effect on capsaicin-evoked Ca2+ influx; assay type: cell-based, rat
Source text: The binding of PRL to the PRL-R activates a variety of intracellular signaling pathways in non-neuronal cells (Bole-Feysot et al. 1998), some of which are known to be involved in the sensitization of TRPV1 in nociceptors (Cesare and McNaughton, 1996). To evaluate whether PRL sensitizes capsaicin activation of TRPV1, changes in calcium (Ca^2+) influx were quantified in acutely dissociated TG neurons. FIG. 4A depicts the results of Ca^2+ imaging experiments performed in acutely dissociated TG neurons. Data are presented as mean % of vehicle±SEM (n=30/group, ***=p<0.001; two-way ANOVA). FIG. 4B depicts representative traces of Ca^2+ imaging experiments performed in neurons from proestrous rats. Neurons were treated with 40 nM PRL or vehicle for 10 min followed by a 40 sec capsaicin (30 nM) application. […] Data are presented as mean F340/F380±SEM (n=8/group; error bars are SEM). […] PRL appears to increase the magnitude of capsaicin-evoked Ca^2+ influx in TG neurons by about 71% compared to that observed in TG neurons not exposed to PRL, whereas PRL had no effect on capsaicin-evoked calcium influx in neurons from OVX control rats (FIG. 4A). […]
Calcium Imaging: TG cells cultured on coverslips were loaded with the cell-permeable calcium sensitive dye FURA 2-AM (1 ug/ml) (Molecular Probes, Eugene, Oreg.) for 30 min at 37° C. in Standard External Solution (SES) of the following composition in mM: 140 NaCl, 5 KCl, 2 CaCl2, 1 MgCl2, 10 glucose and 10 HEPES, pH 7.4. […] Fluorescence images were collected in 5 sec intervals throughout the experiment, analyzed, and the F340/F380 ratio calculated by the Methafluor Software (MethaMorph, Web Universal Imaging Corporation, Downingtown, Pa.). […] The magnitude of calcium influx was determined by subtracting the averaged baseline 30 sec prior to the capsaicin stimulus from the peak achieved by the capsaicin stimulation for each cell (ratiometric method, ΔF340/F380).

Row | Molecule | PRL sensitization of capsaicin nocifensive behavior ([1]; OVX female rats treated with estradiol) | capsaicin-responsiveness (eye wiping) ([1]; OVX female rats, PRL pretreatment) | capsaicin-mediated nocifensive response ([1]; age-matched male rats, PRL pretreatment) | capsaicin-mediated nocifensive behavior (eye wiping) ([1]; proestrous rats, PRL 1 μg/μl 40 μl on cornea, then 0.01% capsaicin) | increase in magnitude of capsaicin-evoked Ca2+ influx ([2]; PRL 40 nM 10 min, capsaicin 30 nM 40 sec, neurons from intact female rats) | effect on capsaicin-evoked calcium influx ([2]; PRL 40 nM, neurons from OVX control rats) | Ca2+ influx evoked by PRL on its own ([2]; PRL 40 nM, neurons from proestrous rats)
1 | C[C@]12CC[C@@H]3c4ccc(O)cc4CC[C@H]3[C@@H]1CC[C@@H]2O [estradiol, 17-β-estradiol] | restores PRL sensitization of capsaicin nocifensive behavior |  |  |  |  |  | 
2 | B1 |  | no change in capsaicin-responsiveness was observed | influences nociceptor sensitization in male rats | significantly increases capsaicin-mediated nocifensive behavior | about 71% | had no effect | did not evoke Ca^2+ influx on its own
